Measurements from the domain aggregation screens of Martell et al. (2025).

Assay: soluble fraction after stress (log2 fold change); higher = more stays soluble; pooled small domains, quantitative proteomics
Details: stress: pH 4
In short: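 How much of each domain stays soluble after acid stress, expressed as a fold change, is used to gauge aggregation propensity. Pooled custom libraries of small domains underwent pH 4 stress before high-throughput quantitative proteomics. A higher log2 value means more of the domain stayed soluble.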

Sequence	soluble fraction (log2)
HMGEKVIAVSGGFDPIHVGHLRMMQDAAQHGRLVVIVNSDEWLLKKKGYVFMPWEERAELIGAYDFVDE	-0.6
HMISTVFYVDVKGEVHHPGVYQMKAENRVKDLIEAAGGFTPLADDQKLNLAQLLEDQMVIVVPKKGEEV	-0.221
HMGDWITGTVTRIADNGWGTFQPENAHNTVSIPPKMVADNQLKEADSIKIIAEPSPDGTKTFIKAISRE	0.214
HMKISQSRKAGKLVLESELKRGGVSLDQYRGGRMSRILELIGVKSLNELLTDLGTGKKTGALVAERFFSGL	-0.036
HMEADERRNEILDAAETLITEKGYSKTTIIDILNQVGIAKGTFYYYFKSKEEVMDAIIERFI	-1.33
HMLKTADAIASVLLTRIQAGEFSAGRLPAERALSEAFSTTRITLREALGKLEAQGMIYRELRRGWFIA	-1.3
HMNSKSFIFHIEDEEGIRLDVFLADNLPDVSRSYVQKLIDEEHVKVNGQSAKSRLKTVSGMEITVDVPAPK	-0.543
HMITERVPVPDLTGMPLMEAIKTLNSSKLQYQVVGSVIEGDENRIIDQTPKPDIMVSEKSIVLLYLETYRG	-0.338
HMEGYLYLSESQNELILKNLKTPLKYNLYNASGKLIKKGNIKNTLDISELPKGVYIFTSSDNSFSKKFLKT	0.276
HMAGWMPGGTNPAEPGRFAVLMDVDDSDAYKHMFLRWNGHAWEFERTRVLVKMEPSWWMRLPDDPEKP	-0.27
HMEELPIIVAQRFLNIFRQLHIFSDERREAFNKMLLELPPEVKSIFQSLPGGTPLQEYMEDLEQKSK	-0.262
HMDEEDVLNELIRRLALTADDRLLLSLSYEDGLSSRKIATLLETSAATVQRRLAGLHHQLEQALRVMGLA	-0.828
HMGRYDWIEQIDDPVLAERLKHLTEDDLELLTRYVFEDATQKELASQYGIGQQSVSKRLKKLKSFLTK	-0.683
HMATKEQIKRIYGLGAGLGIVGKDKDDMLHELIFSITGKDSVKQLDDSEFKAVQAELINRMKLA	-0.111
HMQNEQIAFSKFLQEVDSGRVVQVEIQGNNIKGILSDGSKFYTYSPNYPELVGKLSEKGVNIVASPVE	0.0117
HMKGEIEELLYEEVTKDNNTTFLRIYIKLNDEYNTLLNLGIIGIKTEEKVNELVNLGYKKVL	-2.54
HMRSVPNVAGLGMDGAAFQLGKAGFAIGTITPADDPKAVVGSIQRTEPAAGTVADRDTVVNLFQV	0.22
HMNNESEGAIMLRQYSSLSAYLTKYNIDVNSKKAQQYASSLKLAQEKGSAEGQKYLSSISSELDD	0.00542
HMEDETAKVLRLLAENNGYLPYNDKSDPTDIYAFFGMSKKAFKMTTGNLYKQKKIQFTQTGIQLIE	-0.16
HMRSVLSDEIYLLIRKMIFNYEILPGAKVNIDALAKKLDVSQTPVREALSRLESDGLIVKEPLKGFRATD	-0.239
HMIGERIKRARAAAGLSMQALGKQVGISANMVKKYEHDQSMPSSGVLLKLATALSVRTEYFFRPA	-0.0616
HMLTRSTVNVETGTAAIGLGKLYGVYDMSRKGLKYSFSVDSDAMTKVMEMLLPLGIKSLTVEPPS	-0.658
HMAVSTFGRITASSLNVRSGPSTDHEKVGSLAAGRVVELLEESDGWYRIENGYISTEYVTIVDPSQ	-1.33
HMPDITAAVARTLQALRADRGWSLDQLAARSGVSKGVLVALEQGRSNPNLATLARIGDAFGVPVTLLVDL	-0.196
HMSQYVPDPVLNAALVGYLDFRKQAGKPMTDYSIRLLLVDLAKLSGNPQEQAAILDQSTKNNWIGVYALG	-0.326

Sequence	soluble fraction (log2)
HMNFHLEHHIAELLYRSIRGELSDFERQELNQWRSDSPMHETLFMRLQDDEYIDEELGVFIK	-1.89
HMKNYYRILGLNIDAEYEEIKAAYRILAQRHHPDKGGAAAEFRLIQEAYDILSNPLTKRNYDADLLATLN	-1.08
HMGVGVTAPLAGNIFKIVKQPGDVVASGDVVLILEAMKMETEIRAAAGGTVKQVLVREGDAVDAGHTLMTL	-1.59
HMFHGEGVQANNIQAYIVLKMAAVNGAEDALDTADEVSEKMSREDLETATQVLGQIFRKYLMELQSA	-1.12
HMSVKTIRKTEFAKRLYSLMLEKNWNQSDLARASGMGRDSVSQYIRANNTPSPQNLKKLAEALGVEPVELY	0.0509
HMLDPYNVLGVPRDAGMDEIKKAYRKLSRTYHPDANIDNPNKAQAEEKFKQIQEAYQQIVKERTE	-0.152
HMNYNEKGEYTRTLTSGSETAVMTYRNFGETLDVALFKNGVQTDSLRLIKSEPGVLYRQSNGQFEKI	-0.0181
HMDTSADEVKQLIASFVEQEDKRKPLSDQKIVELLAEKEQKISRRTVAKYRDALNIPSSSKRKRF	-0.141
HMTEDTPIIVERVVADIDENVVAIVRKFKDAFKSITAQREIKKKLRSILWVNYQIKDQEVFDKAYQYIEMY	-0.784
HMSSEDTQSRDRARKELSNEMSRIMKRYGLDYQPRDNADDIMNRLKAAGADENTLAYVQEKLK	0.0559
HMNQASLTYSEFIANVESKAITRVTISGDTISGILADGKPFQTIYPMADLELLPILRRSGVDINVKEVQ	0.22
HMSSETTVPAVVGIKEDKARQLASEQGLRLRVKSREESADVEEGIIISQDPNSNTKVKKGDEIEVVVS	0.32
HMYATQLLQLEEMGFFDRAENIRALRATNGNVNAAVERL	-0.114
HMKSDEGEIKKIVEEIISKNASVVEDYKKGKEVALQFLVGQGMKATKGSANPELLKKIILENI	-0.105
HMSDHKNANFTKVVKVAQELLQDEDDKAGITPTLIEEKISAVLAMNRRWAEGLDRAAVADELIRRFSIW	-0.951
HMTLGENLQNLRKEAGLSQEQVAQQLFVSRQTVSKWENNLAEPGVENLKALARLYGVTLDRLVGM	-0.323
HMDAMGAVGIARAFISAGERGGDISDGLEHMHGKLLRLSSLMYTRSGKKMAARRHELLSSFVQALEEEIK	-0.0591
HMSSSKVAISQFEELVDQGQVREVVIEGSTATGTTAAGRRFAAEIPPGGMELFLSKLDDAGTTYEYSPP	0.127
HMGQAAHYEGVKGDGESDTDVISRVLTAAGAEAQKDDIFVVKELIAGGKYSYTAYVYDGSVWAAM	-0.502
HMGQTDTIIKTTTDLYYEMSTMSDDDKLVVAQTLRDVWMAVGRWSGKLSKKQREKVAEVKRVLGE	-0.5
HMESIAEIDRMNAKIFMDEFQDSLSIMQKTTNPETFFSRYDLAMERLDNMVELQQKGIKFTSDLSSLKAQ	-0.564
HMGNLASGAYEQIKRRILSLEYLPGSILQERGLAEELGISRTPVREAIHRLSQEGWLKINSRKNIRVR	-0.482
HMSNVIYFNYNDYKFLFMGDAGVDKETDILEKYTLSNIDFLKVGHHGSDTSSNKGFIDSIQPKYSLIS	-1.42
HMNAIYKFVLGMIGKRSGVVTTLPSKKQVEFQANMLAEKFMQNGIDPNALKSPEQVKNVLANIDQ	0.01
HMDLKENQHILQISNKGVQMGNVLKDLIIQTLNITNGNQIKAAKLLAISRAKLRYRIEQLGINISGKNI	0.0187

Sequence	soluble fraction (log2)
HMAFDYETYQLTSREFSIIELVADGRSNREIAEALYLGEGTVRNYLSSILEKLELRDRTQLAVFFYQHL	-2.34
HMKNFAPVWGEEGAEFGKEVDTGFRLRIVEKEKDVNDLFEVIQKHTIQSQWKPGSTGTESIYKRI	-1.35
HMTPNATWQDDAQSLLRDLIQHQPVLIQISAAKRLRDQAEQISRITGGDTVTRDHVEAAGHALGMGVT	-0.39
HMGESVVVPDLRGKTLEEARAILKKVDLDYEINDSTYSKTAVPGTIRDIVPAPGSHVKAGRILFVSING	0.0395
HMGHRQRRARARNRSMLEDIPGLGPKRRQQLLRQFGGLPQLMRAGVAELSQVPGISDSLARKIHAELHPES	-1.87
HMSVDDVALRLEFGPSDAEALAFVHRHGAILSETTDRDTGVVSVHVRLSEADAGRFNQRYGV	-0.233
HMNRGITVIVNNEEIKMKEKAQYVVVDIFDYIDFDLTVPKGSINITLNGENTPYTASIKDGDVIEVFW	-1.56
HMLAQVSDEGPIRAMVEAVMARSTQQLEDYKNGKVKLRQYFFGEVMKAAKGKANPTVINKLLDEMLPETL	0.0418
HMAKLTPDQQELRAIRIELQMSQPDFADAININVPRLSSYEYGRTAGVPTSIMEAARELKRSMSR	-0.324
HMNFRESVLAVFENSKQKYLDFDEIAKRLGLTRGFDRQALASMLNELTRNDEIVFTKRNKYTLPEN	-0.774
HMSEHLTLVVSDEDAGHRVDQFLVSRLAHMTRSQIQKLIKDGQVTIDTKLVRASTTVHTDNIVTIEFPPAV	0.314
HMENWMPNLVNQDKRLAINTLRELGFTEEAGNLVIREETSEDVTKDYVISTDPVAETDLADVEKVTLVVSS	-0.219
HMSDDLIILGYSMLNNALKAFHIDPDSIKKKHWDKLAQDYHLKNKNQILTDIALGKRVNIMVAHQLTTIMD	-1.32
HMHTGLAELTDRERDVLRLIATGMTNAAIGSALAYSPSTIRADTVSIYRKLEVRGRAEAAAVAVAAGLTQP	0.123
HMNLFKAPMPGLIRTIVVAEGQEVKKGDVILILEAMKMENALKSPADLVVKSIKVQQGQAVEKNQLLIEF	-0.14
HMEQISIETRIEQLLARLSETEASGFEELFADTSSRADLITTFLALLEMIRLKLVRVFQDGSFGPIRIYKR	-1.5
HMKLHFTINGVHYTWYKQFIRGIQIRELGNIPREDELYLDLPDGWKDDFIEDDEIVDLARPGVEHFISRAK	0.321
HMGEKFTFGQIAKAKAYAKTYANDMTSAVKNIEAIATGLSKHPEVADTLKKANENQELNRITKLAG	0.369
HMTSFDVMLKSAGANKLAVVKLVKELTGLGLKEAKDIVDAAPSKVKEGVSKEEAEELQKQLTGAGAEVEL	0.309
HMTPTRQATVSVAALNVREQPSLQGRRLGKLTQGTTLTVVGPPGEWLKIEYKGETGFVYASYTSLG	-0.0723
HMKYKWLAGQLRRELLENGGKKGYKLPTELELARRYQLSRQTVRRALQLLEEEGLILRRQGSGAYATGKPP	0.0629
HMSSEITYDKFIEMVEEGNVKEVTLQSDTLTIKPKHQDSAFSEKEYYTRQMESADQLTERLEGTGIEFHS	-0.642
HMDKPVIEDVSFDDLAYMVGERVIIRTHLRSTRDGELKSFNRAGILVSLRNRPGMELEIPRSTVASAQVVW	-0.744
HMESRETGLPVVIISDGRILQDNLKRRGLDLSWLDKQLAEHGYPDFRDVFLLTVDEAGGVYFVPRE	-0.145
HMDNEIEQIVEDLNLTLSSLKYTKNQIESILPLIIKEIDDFKKKEKNISFENLLKLAMNHLDND	-1.16
